Legend:
[1] = target: mIgM proximal domain peptide conjugated to keyhole limpet hemocyanin (human); test: ELISA, KLH-PDm
[2] = target: mIgM proximal domain peptide conjugated to keyhole limpet hemocyanin (human); test: ELISA direct binding, mIgM-PD-KLH
[3] = target: mIgM proximal domain peptide conjugated to keyhole limpet hemocyanin (human); test: competition ELISA on KLH-mIgM-PD, competitor unlabeled mAb 1
[4] = target: mIgM proximal domain peptide conjugated to keyhole limpet hemocyanin (human); test: competition ELISA on KLH-mIgM-PD, competitor unlabeled mAb 2
[5] = target: mIgM proximal domain peptide conjugated to keyhole limpet hemocyanin (human); test: competition ELISA on KLH-mIgM-PD, competitor unlabeled mAb 3
[6] = target: mIgM proximal domain peptide conjugated to keyhole limpet hemocyanin (human); test: competition ELISA on KLH-mIgM-PD, competitor unlabeled mAb 4
[7] = target: mIgM proximal domain peptide conjugated to keyhole limpet hemocyanin (human); test: competition ELISA on mIgM-PD-KLH, competitor unlabeled mAb 1
[8] = target: mIgM proximal domain peptide conjugated to keyhole limpet hemocyanin (human); test: competition ELISA on mIgM-PD-KLH, competitor unlabeled mAb 2
[9] = target: mIgM proximal domain peptide conjugated to keyhole limpet hemocyanin (human); test: competition ELISA on mIgM-PD-KLH, competitor unlabeled mAb 3
[10] = target: mIgM proximal domain peptide conjugated to keyhole limpet hemocyanin (human); test: competition ELISA on mIgM-PD-KLH, competitor unlabeled mAb 4

B1: monoclonal antibody mAb4-2b (antibody, mouse IgG1, V domains shown)
VH: EVQLEESGAELVKPGASLKLSCKASGYTFTSYWMNWVKQRPGQGLEWIGIIHPNSGSTNYNEKFKTKATLTVDKSSSTAYMQLSSLTSEDSAVYYCARTRGNYGMDYWGQGTSVTVSS
VL: DIVMTQSHKFMSTSVGDRVSITCKASQDVSTAVAWYQQKPGQSPTLLIYSASYRNTGVPDRFTGSGSGTDFTFTISSVQAEDLAVYYCQQHFSIPPLTFGAGTKLELKR
Question: For B1, which ELISA reading [1] is on record?
Answer: The ELISA reading was 0.9.

Question: And the ELISA reading [2]?
Answer: Its ELISA reading is 0.5.

Question: What about the mAb-HRP binding after blocking by unlabeled mAb [3] of the same binder?
Answer: The mAb-HRP binding after blocking by unlabeled mAb was 74.

Question: What about the mAb-HRP binding after blocking by unlabeled mAb [4] of the same binder?
Answer: The mAb-HRP binding after blocking by unlabeled mAb was 68.

Question: And the mAb-HRP binding after blocking by unlabeled mAb [5]?
Answer: The mAb-HRP binding after blocking by unlabeled mAb was 72.

Question: What about the mAb-HRP binding after blocking by unlabeled mAb [6] of the same binder?
Answer: The mAb-HRP binding after blocking by unlabeled mAb was 14.

Question: What about the mAb-HRP binding after blocking by unlabeled mAb [7] of the same binder?
Answer: Its mAb-HRP binding after blocking by unlabeled mAb is 52.

Question: And the mAb-HRP binding after blocking by unlabeled mAb [8]?
Answer: The mAb-HRP binding after blocking by unlabeled mAb was 71.

Question: What about the mAb-HRP binding after blocking by unlabeled mAb [9] of the same binder?
Answer: Its mAb-HRP binding after blocking by unlabeled mAb is 62.

Question: What about the mAb-HRP binding after blocking by unlabeled mAb [10] of the same binder?
Answer: The mAb-HRP binding after blocking by unlabeled mAb was 9.

Reference: US20160304625A1
